# Data as given in article PMC3901395 (2013).
# Like-named read-outs stand apart in the source and are kept apart here.
# Assays:
# Assay in all cases: ITC
# [1] = target: T1, linear di-SUMO2 (2×SUMO2-ΔN11) (UniProt P61956 12-95; P61956 12-95)
# mono-SUMO2 [2] = target: T2, mono-SUMO2 (UniProt P61956 12-93)
# mono-SUMO1 = mono-SUMO1 (UniProt P63165 16-97)
# mono-SUMO2 [3] = target: T2, mono-SUMO2; remark: listed apart in the source
# linear tri-SUMO = linear tri-SUMO (UniProt P61956 12-95; P61956 12-95; P61956 12-95)
# Sequence of linear tri-SUMO (P61956 other isoform, or with tags, fused parts or gaps): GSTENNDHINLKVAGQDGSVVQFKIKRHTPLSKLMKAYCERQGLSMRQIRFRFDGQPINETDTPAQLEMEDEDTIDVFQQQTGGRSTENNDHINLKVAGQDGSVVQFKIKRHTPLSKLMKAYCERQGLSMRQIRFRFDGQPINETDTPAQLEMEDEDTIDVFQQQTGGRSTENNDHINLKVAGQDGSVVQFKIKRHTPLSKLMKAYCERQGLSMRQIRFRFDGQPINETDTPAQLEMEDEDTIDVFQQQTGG
# [4] = target: T1, linear di-SUMO2 (2×SUMO2-ΔN11); remark: listed apart in the source
# [5] = target: T3, linear tetra-SUMO2 (4×SUMO2-ΔN11) (UniProt P61956 12-95; P61956 12-95; P61956 12-95; P61956 12-95)
# T3 sequence (P61956 other isoform, or with tags, fused parts or gaps mutant): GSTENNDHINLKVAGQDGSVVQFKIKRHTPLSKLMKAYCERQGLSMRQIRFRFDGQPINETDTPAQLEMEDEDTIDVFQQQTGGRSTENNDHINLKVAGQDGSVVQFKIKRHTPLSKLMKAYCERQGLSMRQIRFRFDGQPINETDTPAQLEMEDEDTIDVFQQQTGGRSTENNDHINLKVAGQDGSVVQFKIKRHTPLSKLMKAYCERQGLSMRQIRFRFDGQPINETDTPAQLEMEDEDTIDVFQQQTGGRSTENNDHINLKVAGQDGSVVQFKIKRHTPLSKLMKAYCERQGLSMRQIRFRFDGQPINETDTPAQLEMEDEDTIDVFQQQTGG
# [6] = target: T3, linear tetra-SUMO2 (4×SUMO2-ΔN11); remark: listed apart in the source
# T2 sequence (P61956 12-93): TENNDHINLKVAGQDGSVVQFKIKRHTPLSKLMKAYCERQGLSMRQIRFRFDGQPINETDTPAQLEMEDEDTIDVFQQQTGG
# T1 sequence (P61956 other isoform, or with tags, fused parts or gaps mutant): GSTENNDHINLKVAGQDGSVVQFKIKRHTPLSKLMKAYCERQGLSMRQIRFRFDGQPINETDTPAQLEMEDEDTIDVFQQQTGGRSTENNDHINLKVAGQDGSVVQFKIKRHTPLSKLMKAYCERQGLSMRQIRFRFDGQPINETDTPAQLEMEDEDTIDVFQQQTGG
# Sequence of mono-SUMO1 (P63165 16-97): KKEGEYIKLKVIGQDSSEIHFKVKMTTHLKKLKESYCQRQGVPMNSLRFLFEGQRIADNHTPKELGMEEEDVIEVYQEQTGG
Kd [1] [µM],Kd (mono-SUMO2 [2]) [µM],Binder,further results
44,121,"EAEPIELVETAGDEIVDLTCESL (exact peptide ends are only in Figure 2A; limits taken as SIM1 and SIM2 (IELV, VDLT) plus short flanks; end groups unknown) [RNF4-SIM1/2 peptide]",
16,,RNF4-SIM domain SIM4 mutant (domain or fragment) MSTRKRRGGAINSRQAQKRTREATSTPEISLEAEPIELVETAGDEIVDLTCESLEPVVVDLTHNDSAAAADERRRPRRNARRLPQDHADSCVVSSDDEELSRDRDVYVTTHTPRNARDEGATGLR,
,,"RNF4 1–125 (RNF4-SIM domain, wt) (domain or fragment) MSTRKRRGGAINSRQAQKRTREATSTPEISLEAEPIELVETAGDEIVDLTCESLEPVVVDLTHNDSVVIVDERRRPRRNARRLPQDHADSCVVSSDDEELSRDRDVYVTTHTPRNARDEGATGLR",Kd (mono-SUMO1): 123 µM; Kd (mono-SUMO2 [3]): 145 µM
14,,RNF4-SIM domain SIM1/4 double mutant (domain or fragment) MSTRKRRGGAINSRQAQKRTREATSTPEISLEAEPAAAAETAGDEIVDLTCESLEPVVVDLTHNDSAAAADERRRPRRNARRLPQDHADSCVVSSDDEELSRDRDVYVTTHTPRNARDEGATGLR,
,,full-length RNF4 (natural protein) MSTRKRRGGAINSRQAQKRTREATSTPEISLEAEPIELVETAGDEIVDLTCESLEPVVVDLTHNDSVVIVDERRRPRRNARRLPQDHADSCVVSSDDEELSRDRDVYVTTHTPRNARDEGATGLRPSGTVSCPICMDGYSEIVQNGRLIVSTECGHVFCSQCLRDSLKNANTCPTCRKKINHKRYHPIYI,Kd (linear tri-SUMO): 1.5 µM; Kd [4]: 3.5 µM; Kd [5]: 0.8 µM
72,61,"LEPVVVDLTHNDSVVIVDERR (exact peptide ends are only in Figure 2A; limits taken as SIM3 and SIM4 (VDLT, VVIV) plus short flanks; end groups unknown) [RNF4-SIM3/4 peptide]",
,106,"GDEIVDLTCESLEPVVVDLTHND (exact peptide ends are only in Figure 2A; limits taken as SIM2 and SIM3 (VDLT, VDLT) plus short flanks; end groups unknown) [RNF4-SIM2/3 peptide]",
,,RNF4-SIM domain SIM1/2 double mutant (domain or fragment) MSTRKRRGGAINSRQAQKRTREATSTPEISLEAEPAAAAETAGDEIAAAACESLEPVVVDLTHNDSVVIVDERRRPRRNARRLPQDHADSCVVSSDDEELSRDRDVYVTTHTPRNARDEGATGLR,Kd [6]: 1.6 µM
